Measured values published in article PMC8647080, “Evolution of CPEB4 Dynamics Across its Liquid–Liquid Phase Separation Transition” (The Journal of Physical Chemistry. B, 2021).

Biological target: the molecule itself
Experiment: CW-EPR line shape of the spin label; X band, 2-45 °C, 10-112 μM, 100 mM NaCl, pH 8; spectra simulated with three components (I monomer, II and III in assemblies)

B1: spin labeled CPEB4NTD-C441S/G320C (domain or fragment, human, UniProt Q17RY0-2 1-448, looked up)
chain: MGDYGFGVLVQSNTGNKSAFPVRFHPHLQPPHHHQNATPSPAAFINNNTAANGSSAGSAWLFPAPATHNIQDEILGSEKAKSQQQEQQDPLEKQQLSPSPGQEAGILPETEKAKSEENQGDNSSENGNGKEKIRIESPVLTGFDYQEATGLGTSTQPLTSSASSLTGFSNWSAAIAPSSSTIINEDASFFHQGGVPAASANNGALLFQNFPHHVSPGFGGSFSPQIGPLSQHHPHHPHFQHHHSQHQQQRRSPASPHPPPFTHRNAAFNQLPHLANNLNKPPSPWSSYQSPSPTPSSSWSPGGGGYGGWGGSQGRDHRRCLNGGITPLNSISPLKKNFASNHIQLQKYARPSSAFAPKSWMEDSLNRADNIFPFPDRPRTFDMHSLESSLIDIMRAENDTIKARTYGRRRGQSSLFPMEDGFLDDGRGDQPLHSGLGSPHSFSHQNGE
modifications: nitroxide spin label on the introduced cysteine 320 (marked * in the paper)
notes: also called C441S/G320C CPEB4NTD mutant; source: E. coli BL21(DE3), purified using the same protocol (Ni2+-NTA, Superdex-200)
Question: Does B1 bind?
Answer: binds
